Data as given in patent US20230296569A1, “Substance quantification in complex mixtures” (ISA Pharmaceuticals B.V., priority 2021, published 2023).

Key:
[1] = Peptide content (assay) of lyophilized drug product by UPLC-UV at 220 nm, conventional method (peptide as reference standard); type: physicochemical; conditions: DP-7P batch, conventional method (peptide as RS)
Description: The purity including individual related substances and the assay of a DP-5P (5 peptides, SEQ ID NOs: 1-5) and DP-7P (7 peptides, SEQ ID NOs: 6-12) mixture were determined by reversed phase rapid HPLC (UPLC) using a mobile phase gradient of acetonitrile and water and UV detection at λ=220 nm.
• Column: RP C18, e.g. Waters Acquity, BEH 130 PST (1.7 μm, 150×2.1 mm) • Sample matrix Eluent A : Eluent B=85:15 (v/v). • Sample concentration 100 μg/mL net peptide (of each drug substance mixture), duplicate • Injection volume: 5 μL • Column temperature: 65° C. • Sample temperature: 5° C. • Detection: UV (λ=220 nm) • Flow rate: 0.3 mL/min • Eluent A: 0.05%v/v TFA and 1%v/v Acetonitrile (ACN) in water • Eluent B: 0.05%v/v TFA in ACN
The relative retention times (RRTs) assigned to peptides and related substances both in a DP-5P (SEQ ID NO: 1-5) and DP-7P (SEQ ID NO: 6-12) mixture was calculated with reference to the retention time of the peptide eluting in the middle (FIG. 1 and FIG. 2). That retention time was used as reference as the main peak of this drug substance was detected approx. in the center of the chromatogram. The related substances were determined by area normalization. The individual related substances were reported≥0.10%a/a. The total related substances were calculated as the sum of all individual related substances equal to or greater than a disregard limit of 0.0500%a/a. The purity was calculated as the difference between total related substances and 100%.
The assay of each of the peptides was calculated against a reference standard solution containing either five peptides (DP-5P) or seven peptides (DP-7P) and was expressed in percent and in mg net peptide/vial. For this reference method, the absorption ratio between the reference substance and the analyte is 1, because the reference substance is the analyte itself.
At T=0 months (TOM) the peptide content was measured using the conventional method of Example 2. From T=48 months (T48M) onwards the peptide content was measured with the conventional method of Example 2 and the method according to the invention of Example 3.

[2] = Peptide content (assay) of lyophilized drug product by UPLC-UV at 220 nm, method according to the invention (USP reserpine reference standard, RRF); type: physicochemical; conditions: DP-7P batch, method according to the invention (USP RS)
Description: The UPLC method similar to Example 1 was used for the quantification of analytes (i.e. the individual peptides) in mixtures DP-5P (SEQ ID NO: 1-5) and DP-7P (SEQ ID NO: 6-12) and for the determination of content uniformity of mixtures DP-5P and DP-7P (lyophilized product). The method is based on the use of an external reference standard. The relative response factor (ratio of molar extinction coefficients, RRF) against this external reference standard has been established for each peptide. The purity, individual related substances, and the assay of DP-5P and DP-7P were determined by reversed phase rapid HPLC (UPLC) using a mobile phase gradient of ACN/IPA and water and UV detection at λ220 nm.
The following lyophilized peptide compositions were used: DP-5P comprising peptides represented herein by SEQ ID NO: 1-5 admixed at equal net weights of 0.40 mg of each peptide per vial (total amount of protein per vial being 2.00 mg) and 0.56 mg TFA per vial; and DP-7P comprising peptides represented herein by SEQ ID NO: 6-12 admixed at equal net weights of 0.40 mg of each peptide per vial (total amount of protein per vial being 2.80 mg) and 0.96 mg TFA per vial. The following chemicals were used: Acetonitrile, (Biosolve, 01204102); UPLC water, (Type 1, milli-Q); trifluoroacetic acid, (Chem Lab, CLoo.2094.0001), 2-propanol, (UPLC/MS grade, Biosolve, 16264102); Reserpine, (USP, Sigma Aldrich, 1601000). The following equipment was used: QuanRecovery vials, (Waters, 186009186); UPLC pump equipped with a gradient system, autosampler, and UV detection (Waters Acquity or equivalent) and mixer volume 425 μL.
• Mobile phase A: 0.1% (v/v) TFA in water • Mobile phase B: 0.1% (v/v) TFA in 70/30 ACN/IPA • Diluent A: 0.05% (v/v) TFA in water • Diluent B: 0.05% (v/v) TFA in ACN • Blank solution: 80/20 (v/v) diluent A/diluent B • Purge solvent: 80/20 (v/v) water/ACN • Needle wash: 0.05% (v/v) TFA in 80/20 (v/v) water/ACN
5.00 mg Reserpine reference material was accurately weighed and added into a 50 mL volumetric flask. 40.0 mL of blank solution was added, by means of a volumetric pipette. The solution was stirred for 10 min, by means of a magnetic stirrer, until fully dissolved. The solution was diluted to volume with blank solution and mixed well.
Transfer of 2.0 mL, by means of a volumetric pipette, of stock reference solution 1 into a 20 mL volumetric flask. Diluted to volume with blank solution and homogenized.
This sample preparation was setup for lyophilized products DP-5P and DP-7P in an initially sealed container. Before opening and dissolving the drug product, the vials were equilibrated at room temperature for at least 1 hour. The content of the vial was dissolved with 0.8 mL of diluent B, and stirred for 20 min, using a magnetic stirrer. 3.2 mL of diluent A were added. The solution was stirred well for 20 min, using a magnetic stirrer. After dissolving the content of the vial, the sample vial was kept on the lab bench for 30 minutes. The solution was stirred briefly and transferred into an HPLC vial.
• Column: Advance Bio Peptide Map (2.7 μm, 250 x 2.1 mm) • Sample matrix 0.05%v/v TFA in ACN : water (1:4 v/v) • Sample concentration 100 μg/mL net peptide (of each drug substance), duplicate • Injection volume: 10 μL • Column temperature: 40° C. • Sample temperature: 5° C. • Detection: UV (λ=220 nm) • Flow rate: 0.2 mL/min • Run time: 65 min • Purge solvent: 80/20 (v/v) water/ACN • Needle wash: 0.05% (v/v) TFA in 80/20 water/ACN (v/v) (20 s) • Seal wash: 90/10 (v/v) water/MeOH • Elution mode: Gradient elution • Eluent A: 0.1%v/v TFA in water • Eluent B: 0.1%v/v TFA in ACN/IPA (70:30 v/v)
The RRF was determined for all 12 peptides, enabling the quantification of each peptide against a reserpine as shown above. For the determination, the absorbance of each peptide in a solution comprising said peptide at a known concentration, and of a reference standard solution comprising reserpine at a known concentration, were measured at 220 nm. […]

Sequence: YGTTLEQQYNKPLCDLLIRCINCQKPLCPEEK (Peptide 12)
- Assay (mg/vial) ([1]; T0M): 0.4261 mg/vial
- Label claim (% target 0.40 mg/vial) ([1]; T0M): 107%
- Assay (mg/vial) ([1]; T48M): 0.4323 mg/vial
- Label claim (% target 0.40 mg/vial) ([1]; T48M): 108%
- Assay (mg/vial) ([1]; T54M): 0.4215 mg/vial
- Label claim (% target 0.40 mg/vial) ([1]; T54M): 105%
- Assay (mg/vial) ([1]; T60M): 0.4219 mg/vial
- Label claim (% target 0.40 mg/vial) ([1]; T60M): 105%
- Assay (mg/vial) ([2]; T48M): 0.4132 mg/vial
- Label claim (% target 0.40 mg/vial) ([2]; T48M): 103%
- Assay (mg/vial) ([2]; T54M): 0.4034 mg/vial
- Label claim (% target 0.40 mg/vial) ([2]; T54M): 101%
- Assay (mg/vial) ([2]; T60M): 0.4010 mg/vial
- Label claim (% target 0.40 mg/vial) ([2]; T60M): 100%
